Changes are numbered by the printed parent chain. Numbers in names are those of the source.
T1: DestiTA (Desulfomonile tiedjei, UniProt I4C827)
T1 construct: gene Desti_3054; recombinant in E. coli Rosetta(DE3) pLysS, codon-optimized gene in modified pET-21d; N-terminal (His)6-TEV tag cut with TEV protease; homodimer about 68 kDa by gel filtration
T1 sequence (I4C827 1-302): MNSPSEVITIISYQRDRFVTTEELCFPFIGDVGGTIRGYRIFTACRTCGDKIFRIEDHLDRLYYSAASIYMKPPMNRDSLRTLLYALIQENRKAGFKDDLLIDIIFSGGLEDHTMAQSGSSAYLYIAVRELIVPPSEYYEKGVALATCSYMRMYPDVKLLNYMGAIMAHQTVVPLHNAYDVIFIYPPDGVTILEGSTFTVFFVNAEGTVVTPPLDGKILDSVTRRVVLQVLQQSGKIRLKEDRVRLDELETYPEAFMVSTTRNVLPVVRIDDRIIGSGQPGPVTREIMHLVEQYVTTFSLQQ

B1: DestiTA T43E variant (enzyme, Desulfomonile tiedjei DSM 6799, UniProt I4C827 1-302, looked up)
chain: T1 sequence (I4C827 1-302) with T43E
notes: DestiTA of Desulfomonile tiedjei DSM 6799, gene Desti_3054, Uniprot ID I4C827_DESTA, with T43E; Made by single-primer site-directed mutagenesis; also called the T43E variant; source: E. coli, purified as described for the WT DestiTA; not shown: His6, N-terminal, cleaved
B2: D-amino acid transaminase from Desulfomonile tiedjei (DestiTA), wild type (enzyme, Desulfomonile tiedjei DSM 6799, UniProt I4C827 1-302, looked up)
chain: T1 sequence (I4C827 1-302)
notes: PLP-dependent fold type IV transaminase DestiTA of Desulfomonile tiedjei DSM 6799, gene Desti_3054, Uniprot ID I4C827_DESTA; recombinant DestiTA printed as 302 a.a., 34.2 kDa; codon-optimised synthetic gene in modified pET-21d; N-terminal (His)6-TEV-tag removed with TEV protease; also called WT DestiTA; WT; source: E. coli Rosetta(DE3) pLysS, purified (HisTrap HP, TEV cleavage, second HisTrap HP, …)
B3: DestiTA T199Q variant (enzyme, Desulfomonile tiedjei DSM 6799, UniProt I4C827 1-302, looked up)
chain: T1 sequence (I4C827 1-302) with T199Q
notes: DestiTA of Desulfomonile tiedjei DSM 6799, gene Desti_3054, Uniprot ID I4C827_DESTA, with T199Q; Made by single-primer site-directed mutagenesis; also called the T199Q variant; source: E. coli, purified as described for the WT DestiTA; not shown: His6, N-terminal, cleaved
B4: DestiTA T199N variant (enzyme, Desulfomonile tiedjei DSM 6799, UniProt I4C827 1-302, looked up)
chain: T1 sequence (I4C827 1-302) with T199N
notes: DestiTA of Desulfomonile tiedjei DSM 6799, gene Desti_3054, Uniprot ID I4C827_DESTA, with T199N; Made by single-primer site-directed mutagenesis; also called the T199N variant; source: E. coli, purified as described for the WT DestiTA; not shown: His6, N-terminal, cleaved

Legend:
[1] = target: T2, DestiTA (Desulfomonile tiedjei, UniProt I4C827, T199N); assay: thermal shift assay (ThermoFluor) on apoenzyme, quadratic fit; assay type: binding; conditions: 50 mM K-phosphate, pH 8.0; 2 µM apoenzyme incubated with 0.5–500 µM PLP 1 h at 25 °C; covalent (Schiff base to K158)
T2 construct: gene Desti_3054; recombinant in E. coli Rosetta(DE3) pLysS, codon-optimized gene in modified pET-21d; N-terminal (His)6-TEV tag cut with TEV protease; homodimer about 68 kDa by gel filtration

[2] = target: T3, DestiTA (Desulfomonile tiedjei, UniProt I4C827, T199Q); assay: as above; assay type: binding; conditions: 50 mM K-phosphate, pH 8.0; 2 µM apoenzyme incubated with 0.5–500 µM PLP 1 h at 25 °C; covalent (Schiff base to K158)
T3 construct: gene Desti_3054; recombinant in E. coli Rosetta(DE3) pLysS, codon-optimized gene in modified pET-21d; N-terminal (His)6-TEV tag cut with TEV protease; homodimer about 68 kDa by gel filtration

[3] = target: T1, DestiTA; assay: as above; assay type: binding; conditions: 50 mM K-phosphate, pH 8.0; 2 µM apoenzyme incubated with 0.5–500 µM PLP 1 h at 25 °C; covalent (Schiff base to K158)
[4] = substrate: C[C@@H](N)C(=O)O; assay: purified protein; conditions: co-substrate α-ketoglutarate, 50 mM K-phosphate, 30 µM PLP
[5] = substrate: O=C(O)CCC(=O)C(=O)O; assay: purified protein; assay type: biochemical, Desulfomonile tiedjei; conditions: co-substrate D-alanine, 50 mM K-phosphate, 30 µM PLP
[6] = target: the molecule itself; assay: SEC; gel filtration of the purified enzyme; molecular weight approximately 68 kDa for the WT (subunit 34.2 kDa); self-association, homodimer
[7] = substrate: C[C@@H](N)c1ccccc1; assay: purified protein; assay type: biochemical, Desulfomonile tiedjei; conditions: co-substrate α-ketoglutarate, 50 mM Na-pyrophosphate, pH 9.0, 50 °C, 30 µM PLP

T3 sequence (I4C827 entry or part of it T199Q): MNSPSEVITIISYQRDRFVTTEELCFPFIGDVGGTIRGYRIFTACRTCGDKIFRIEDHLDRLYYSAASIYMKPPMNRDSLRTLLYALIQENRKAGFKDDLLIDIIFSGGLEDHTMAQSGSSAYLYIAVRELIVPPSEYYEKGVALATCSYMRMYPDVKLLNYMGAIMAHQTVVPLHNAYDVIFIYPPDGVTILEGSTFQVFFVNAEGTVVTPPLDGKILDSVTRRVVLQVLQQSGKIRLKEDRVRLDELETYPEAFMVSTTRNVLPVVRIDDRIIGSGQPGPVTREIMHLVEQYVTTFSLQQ
T2 sequence (I4C827 entry or part of it T199N): as the sequence (I4C827 entry or part of it T199Q) above, with Q199N counted along it

Row | Molecule | Kd [1] [µM] | Kd [2] [µM] | Kd [3] [µM] | Km ([4]; pH 6.5, 40 °C, pH 6.5, 40.0 °C) [µM] | kcat ([4]; pH 6.5, 40 °C, pH 6.5, 40.0 °C) [s⁻¹] | kcat/Km ([4]; pH 6.5, 40 °C, pH 6.5, 40.0 °C) [M⁻¹ s⁻¹] | Km ([5]; pH 6.5, 40 °C) [µM] | kcat ([5]; pH 6.5, 40 °C) [s⁻¹] | kcat/Km ([5]; pH 6.5, 40 °C) [M⁻¹ s⁻¹] | stoichiometry N [6] | Km ([4]; pH 8.0, 50 °C, pH 8.0, 50.0 °C) [µM] | kcat ([4]; pH 8.0, 50 °C, pH 8.0, 50.0 °C) [s⁻¹] | kcat/Km ([4]; pH 8.0, 50 °C, pH 8.0, 50.0 °C) [M⁻¹ s⁻¹] | Km [7] [µM] | kcat [7] [s⁻¹] | kcat/Km [7] [M⁻¹ s⁻¹] | Km ([5]; pH 8.0, 50 °C) [µM] | kcat ([5]; pH 8.0, 50 °C) [s⁻¹] | kcat/Km ([5]; pH 8.0, 50 °C) [M⁻¹ s⁻¹]
1 | Cc1ncc(COP(=O)(O)O)c(C=O)c1O [PLP] | 33 ± 2 | 2.2 ± 0.4 | 11 ± 1 |  |  |  |  |  |  |  |  |  |  |  |  |  |  |  | 
2 | B1 |  |  |  | 2900 ± 800 | 0.15 | 52 | 2800 ± 900 | 0.15 ± 0.01 | 54 ± 30 | 2 |  |  |  |  |  |  |  |  | 
3 | B2 |  |  |  |  |  |  |  |  |  | 2 | 500 ± 100 | 5.8 | 11600 ± 3000 | 17000 ± 2000 | 0.7 ± 0.1 | 70 ± 20 | 110 ± 10 | 5.8 ± 0.2 | 53000 ± 8000
4 | B3 |  |  |  |  |  |  |  |  |  | 2 | 50000 ± 6000 | 8.4 | 170 |  |  |  | 450 ± 70 | 8.4 ± 0.4 | 19000 ± 4000
5 | B4 |  |  |  |  |  |  |  |  |  | 2 | 520 ± 70 | 5 | 10000 ± 2000 |  |  |  | 210 ± 30 | 5 ± 0.2 | 24000 ± 4000

Source: article PMC12429042, “Contribution of Second-Shell Residues to PLP-Dependent Transaminase Catalysis: A Case Study of D-Amino Acid Transaminase from Desulfomonile tiedjei” (International Journal of Molecular Sciences, 2025)
